Assay results published in patent US20240279278A1, “NMU RECEPTOR 2 AGONISTS” (Boehringer Ingelheim International GmbH, priority 2023, published 2024).

T1: human neuromedin U receptor 1 (human, UniProt Q9HB89 24-426)
T1 sequence (looked up): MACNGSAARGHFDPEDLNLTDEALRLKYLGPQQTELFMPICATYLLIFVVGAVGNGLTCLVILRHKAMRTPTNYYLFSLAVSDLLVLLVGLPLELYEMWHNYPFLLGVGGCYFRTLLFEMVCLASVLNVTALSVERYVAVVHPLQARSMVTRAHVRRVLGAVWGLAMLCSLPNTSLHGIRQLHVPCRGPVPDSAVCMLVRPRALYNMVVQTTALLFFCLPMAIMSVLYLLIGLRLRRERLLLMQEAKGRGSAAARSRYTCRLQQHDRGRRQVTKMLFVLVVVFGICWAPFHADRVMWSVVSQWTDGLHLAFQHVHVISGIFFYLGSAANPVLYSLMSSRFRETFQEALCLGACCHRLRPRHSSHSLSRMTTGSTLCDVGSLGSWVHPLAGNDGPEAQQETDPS

B1: C20DA-gGlu4-Sar12-AEPipAc-Tyr-Phe-NMeLeu-Nle-Dbu-NMeAla-Arg-Gly-NH2 (peptide)
peptide: EEEEXXXXXXXXXXXXXYFLXXARG
HELM: PEPTIDE1{[O=C(O)CCCCCCCCCCCCCCCCCCC(=O)[*:2]].[gGlu].[gGlu].[gGlu].[gGlu].[Sar].[Sar].[Sar].[Sar].[Sar].[Sar].[Sar].[Sar].[Sar].[Sar].[Sar].[Sar].[O=C(CN1CCN(CCN[*:1])CC1)[*:2]].Y.F.[meL].[Nle].[Dab].[meA].R.G.[am]}$$$$V2.0
SMILES: CCCC[C@H](NC(=O)[C@H](CC(C)C)N(C)C(=O)[C@H](Cc1ccccc1)NC(=O)[C@H](Cc1ccc(O)cc1)NC(=O)CN1CCN(CCNC(=O)CN(C)C(=O)CN(C)C(=O)CN(C)C(=O)CN(C)C(=O)CN(C)C(=O)CN(C)C(=O)CN(C)C(=O)CN(C)C(=O)CN(C)C(=O)CN(C)C(=O)CN(C)C(=O)CN(C)C(=O)CC[C@H](NC(=O)CC[C@H](NC(=O)CC[C@H](NC(=O)CC[C@H](NC(=O)CCCCCCCCCCCCCCCCCCC(=O)O)C(=O)O)C(=O)O)C(=O)O)C(=O)O)CC1)C(=O)N[C@@H](CCN)C(=O)N(C)[C@@H](C)C(=O)N[C@@H](CCCNC(=N)N)C(=O)NCC(N)=O
B2: C20DA-gGlu4-Sar12-AEPipAc-Tyr-Phe-NMeLeu-Nle-Lys-Pro-Arg-Gly-NH2 (peptide)
peptide: EEEEXXXXXXXXXXXXXYFLXKPRG
HELM: PEPTIDE1{[O=C(O)CCCCCCCCCCCCCCCCCCC(=O)[*:2]].[gGlu].[gGlu].[gGlu].[gGlu].[Sar].[Sar].[Sar].[Sar].[Sar].[Sar].[Sar].[Sar].[Sar].[Sar].[Sar].[Sar].[O=C(CN1CCN(CCN[*:1])CC1)[*:2]].Y.F.[meL].[Nle].K.P.R.G.[am]}$$$$V2.0
SMILES: CCCC[C@H](NC(=O)[C@H](CC(C)C)N(C)C(=O)[C@H](Cc1ccccc1)NC(=O)[C@H](Cc1ccc(O)cc1)NC(=O)CN1CCN(CCNC(=O)CN(C)C(=O)CN(C)C(=O)CN(C)C(=O)CN(C)C(=O)CN(C)C(=O)CN(C)C(=O)CN(C)C(=O)CN(C)C(=O)CN(C)C(=O)CN(C)C(=O)CN(C)C(=O)CN(C)C(=O)CC[C@H](NC(=O)CC[C@H](NC(=O)CC[C@H](NC(=O)CC[C@H](NC(=O)CCCCCCCCCCCCCCCCCCC(=O)O)C(=O)O)C(=O)O)C(=O)O)C(=O)O)CC1)C(=O)N[C@@H](CCCCN)C(=O)N1CCC[C@H]1C(=O)N[C@@H](CCCNC(=N)N)C(=O)NCC(N)=O
B3: C20DA-gGlu3-Sar15-AEPipAc-Tyr-Phe-NMeLeu-Nle-Orn-Pro-Arg-Gly-NH2 (peptide)
peptide: EEEXXXXXXXXXXXXXXXXYFLXXPRG
HELM: PEPTIDE1{[O=C(O)CCCCCCCCCCCCCCCCCCC(=O)[*:2]].[gGlu].[gGlu].[gGlu].[Sar].[Sar].[Sar].[Sar].[Sar].[Sar].[Sar].[Sar].[Sar].[Sar].[Sar].[Sar].[Sar].[Sar].[Sar].[O=C(CN1CCN(CCN[*:1])CC1)[*:2]].Y.F.[meL].[Nle].[Orn].P.R.G.[am]}$$$$V2.0
SMILES: CCCC[C@H](NC(=O)[C@H](CC(C)C)N(C)C(=O)[C@H](Cc1ccccc1)NC(=O)[C@H](Cc1ccc(O)cc1)NC(=O)CN1CCN(CCNC(=O)CN(C)C(=O)CN(C)C(=O)CN(C)C(=O)CN(C)C(=O)CN(C)C(=O)CN(C)C(=O)CN(C)C(=O)CN(C)C(=O)CN(C)C(=O)CN(C)C(=O)CN(C)C(=O)CN(C)C(=O)CN(C)C(=O)CN(C)C(=O)CN(C)C(=O)CC[C@H](NC(=O)CC[C@H](NC(=O)CC[C@H](NC(=O)CCCCCCCCCCCCCCCCCCC(=O)O)C(=O)O)C(=O)O)C(=O)O)CC1)C(=O)N[C@@H](CCCN)C(=O)N1CCC[C@H]1C(=O)N[C@@H](CCCNC(=N)N)C(=O)NCC(N)=O
B4: C18DA-gGlu3-Sar12-AEPipAc-Tyr-Phe-NMeLeu-Nle-Dbu-NMeAla-Arg-Gly-NH2 (peptide)
peptide: EEEXXXXXXXXXXXXXYFLXXARG
HELM: PEPTIDE1{[O=C(O)CCCCCCCCCCCCCCCCC(=O)[*:2]].[gGlu].[gGlu].[gGlu].[Sar].[Sar].[Sar].[Sar].[Sar].[Sar].[Sar].[Sar].[Sar].[Sar].[Sar].[Sar].[O=C(CN1CCN(CCN[*:1])CC1)[*:2]].Y.F.[meL].[Nle].[Dab].[meA].R.G.[am]}$$$$V2.0
SMILES: CCCC[C@H](NC(=O)[C@H](CC(C)C)N(C)C(=O)[C@H](Cc1ccccc1)NC(=O)[C@H](Cc1ccc(O)cc1)NC(=O)CN1CCN(CCNC(=O)CN(C)C(=O)CN(C)C(=O)CN(C)C(=O)CN(C)C(=O)CN(C)C(=O)CN(C)C(=O)CN(C)C(=O)CN(C)C(=O)CN(C)C(=O)CN(C)C(=O)CN(C)C(=O)CN(C)C(=O)CC[C@H](NC(=O)CC[C@H](NC(=O)CC[C@H](NC(=O)CCCCCCCCCCCCCCCCC(=O)O)C(=O)O)C(=O)O)C(=O)O)CC1)C(=O)N[C@@H](CCN)C(=O)N(C)[C@@H](C)C(=O)N[C@@H](CCCNC(=N)N)C(=O)NCC(N)=O
B5: C20DA-gGlu3-Sar15-AEPipAc-Tyr-Phe-NMeLeu-Nle-Dbu-Pro-Arg-Gly-NH2 (peptide)
peptide: EEEXXXXXXXXXXXXXXXXYFLXXPRG
HELM: PEPTIDE1{[O=C(O)CCCCCCCCCCCCCCCCCCC(=O)[*:2]].[gGlu].[gGlu].[gGlu].[Sar].[Sar].[Sar].[Sar].[Sar].[Sar].[Sar].[Sar].[Sar].[Sar].[Sar].[Sar].[Sar].[Sar].[Sar].[O=C(CN1CCN(CCN[*:1])CC1)[*:2]].Y.F.[meL].[Nle].[Dab].P.R.G.[am]}$$$$V2.0
SMILES: CCCC[C@H](NC(=O)[C@H](CC(C)C)N(C)C(=O)[C@H](Cc1ccccc1)NC(=O)[C@H](Cc1ccc(O)cc1)NC(=O)CN1CCN(CCNC(=O)CN(C)C(=O)CN(C)C(=O)CN(C)C(=O)CN(C)C(=O)CN(C)C(=O)CN(C)C(=O)CN(C)C(=O)CN(C)C(=O)CN(C)C(=O)CN(C)C(=O)CN(C)C(=O)CN(C)C(=O)CN(C)C(=O)CN(C)C(=O)CN(C)C(=O)CC[C@H](NC(=O)CC[C@H](NC(=O)CC[C@H](NC(=O)CCCCCCCCCCCCCCCCCCC(=O)O)C(=O)O)C(=O)O)C(=O)O)CC1)C(=O)N[C@@H](CCN)C(=O)N1CCC[C@H]1C(=O)N[C@@H](CCCNC(=N)N)C(=O)NCC(N)=O
B6: C20DA-gGlu3-Sar15-AEPipAc-Tyr-Phe-NMeLeu-Nle-Dbu-NMeAla-Arg-Gly-NH2 (peptide)
peptide: EEEXXXXXXXXXXXXXXXXYFLXXARG
HELM: PEPTIDE1{[O=C(O)CCCCCCCCCCCCCCCCCCC(=O)[*:2]].[gGlu].[gGlu].[gGlu].[Sar].[Sar].[Sar].[Sar].[Sar].[Sar].[Sar].[Sar].[Sar].[Sar].[Sar].[Sar].[Sar].[Sar].[Sar].[O=C(CN1CCN(CCN[*:1])CC1)[*:2]].Y.F.[meL].[Nle].[Dab].[meA].R.G.[am]}$$$$V2.0
SMILES: CCCC[C@H](NC(=O)[C@H](CC(C)C)N(C)C(=O)[C@H](Cc1ccccc1)NC(=O)[C@H](Cc1ccc(O)cc1)NC(=O)CN1CCN(CCNC(=O)CN(C)C(=O)CN(C)C(=O)CN(C)C(=O)CN(C)C(=O)CN(C)C(=O)CN(C)C(=O)CN(C)C(=O)CN(C)C(=O)CN(C)C(=O)CN(C)C(=O)CN(C)C(=O)CN(C)C(=O)CN(C)C(=O)CN(C)C(=O)CN(C)C(=O)CC[C@H](NC(=O)CC[C@H](NC(=O)CC[C@H](NC(=O)CCCCCCCCCCCCCCCCCCC(=O)O)C(=O)O)C(=O)O)C(=O)O)CC1)C(=O)N[C@@H](CCN)C(=O)N(C)[C@@H](C)C(=O)N[C@@H](CCCNC(=N)N)C(=O)NCC(N)=O
B7: C20DA-gGlu3-Sar12-AEPipAc-Tyr-Phe-NMeLeu-Nle-Arg-Pro-Arg-Gly-NH2 (peptide)
peptide: EEEXXXXXXXXXXXXXYFLXRPRG
HELM: PEPTIDE1{[O=C(O)CCCCCCCCCCCCCCCCCCC(=O)[*:2]].[gGlu].[gGlu].[gGlu].[Sar].[Sar].[Sar].[Sar].[Sar].[Sar].[Sar].[Sar].[Sar].[Sar].[Sar].[Sar].[O=C(CN1CCN(CCN[*:1])CC1)[*:2]].Y.F.[meL].[Nle].R.P.R.G.[am]}$$$$V2.0
SMILES: CCCC[C@H](NC(=O)[C@H](CC(C)C)N(C)C(=O)[C@H](Cc1ccccc1)NC(=O)[C@H](Cc1ccc(O)cc1)NC(=O)CN1CCN(CCNC(=O)CN(C)C(=O)CN(C)C(=O)CN(C)C(=O)CN(C)C(=O)CN(C)C(=O)CN(C)C(=O)CN(C)C(=O)CN(C)C(=O)CN(C)C(=O)CN(C)C(=O)CN(C)C(=O)CN(C)C(=O)CC[C@H](NC(=O)CC[C@H](NC(=O)CC[C@H](NC(=O)CCCCCCCCCCCCCCCCCCC(=O)O)C(=O)O)C(=O)O)C(=O)O)CC1)C(=O)N[C@@H](CCCNC(=N)N)C(=O)N1CCC[C@H]1C(=O)N[C@@H](CCCNC(=N)N)C(=O)NCC(N)=O
B8: C18DA-gGlu3-Sar15-AEPipAc-Tyr-Phe-NMeLeu-Nle-Arg-Pro-Arg-Gly-NH2 (peptide)
peptide: EEEXXXXXXXXXXXXXXXXYFLXRPRG
HELM: PEPTIDE1{[O=C(O)CCCCCCCCCCCCCCCCC(=O)[*:2]].[gGlu].[gGlu].[gGlu].[Sar].[Sar].[Sar].[Sar].[Sar].[Sar].[Sar].[Sar].[Sar].[Sar].[Sar].[Sar].[Sar].[Sar].[Sar].[O=C(CN1CCN(CCN[*:1])CC1)[*:2]].Y.F.[meL].[Nle].R.P.R.G.[am]}$$$$V2.0
SMILES: CCCC[C@H](NC(=O)[C@H](CC(C)C)N(C)C(=O)[C@H](Cc1ccccc1)NC(=O)[C@H](Cc1ccc(O)cc1)NC(=O)CN1CCN(CCNC(=O)CN(C)C(=O)CN(C)C(=O)CN(C)C(=O)CN(C)C(=O)CN(C)C(=O)CN(C)C(=O)CN(C)C(=O)CN(C)C(=O)CN(C)C(=O)CN(C)C(=O)CN(C)C(=O)CN(C)C(=O)CN(C)C(=O)CN(C)C(=O)CN(C)C(=O)CC[C@H](NC(=O)CC[C@H](NC(=O)CC[C@H](NC(=O)CCCCCCCCCCCCCCCCC(=O)O)C(=O)O)C(=O)O)C(=O)O)CC1)C(=O)N[C@@H](CCCNC(=N)N)C(=O)N1CCC[C@H]1C(=O)N[C@@H](CCCNC(=N)N)C(=O)NCC(N)=O

The binders below were run against T1, human neuromedin U receptor 1 (assay: cell-based or functional assay).
With B1 the “EC50 (hNMUR1) buffer” value was over 1 µM.
B2 was tested, and the “EC50 (hNMUR1) buffer” value was 1.2 µM.

Target: T1, human neuromedin U receptor 1
Test: cell-based or functional assay
Remark: another data set of the same source
With B3 the EC50 (hNMUR1) buffer was 0.89 µM.
Binder B4 has an EC50 (hNMUR1) buffer of over 1 µM.
B5 gave an EC50 (hNMUR1) buffer of 1.5 µM.
B6 showed an EC50 (hNMUR1) buffer of over 1 µM.
With B7 the EC50 (hNMUR1) buffer was 0.12 µM.
For B8, the EC50 (hNMUR1) buffer was 0.25 µM.
